Data reported in patent US20260266848A1, “COMPOSITIONS AND METHODS FOR DIAGNOSING AND TREATING DYSTONIA” (Duke University, priority 2023, published 2026).

Legend:
WT MEF EVs = assay: Quantitative LC-MS/MS proteomics of EVs from ISRIB-treated WT MEF cultures; assay type: cell-based, mouse; design: key to ISRIB and DYT Parallel Direction / ISRIB and DYT Parallel Direction, Ctdsp1 / ISRIB and DYT Parallel Direction, Pcdh19 / ISRIB and DYT Parallel Direction, Tspan7 / ISRIB and DYT Parallel Direction, Myo1e / ISRIB and DYT Parallel Direction, Plpp3 / ISRIB and DYT Parallel Direction, Sh3bp4 / ISRIB and DYT Parallel Direction, Dnajc7 / ISRIB and DYT Parallel Direction, Drg1 / ISRIB and DYT Parallel Direction, Maea: YES = protein abundance effect similar to DYT/WT; conditions: EV protein abundance; for WT + ISRIB/WT Cohen's d: ISRIB-treated WT vs WT; for ISRIB and DYT Parallel Direction: WT + ISRIB vs WT, direction compared with DYT/WT
DYT-TOR1A MEF EVs = assay: Quantitative LC-MS/MS proteomics of EVs from drug-treated DYT-TOR1A MEF cultures (ritonavir, salubrinal); assay type: cell-based, mouse; design: key to RTV Corrective Direction / RTV Corrective Direction, Grwd1 / RTV Corrective Direction, Srrm2 / RTV Corrective Direction, Rbm17 / RTV Corrective Direction, Dcaf8 / RTV Corrective Direction, Edil3 / RTV Corrective Direction, Timp3 / RTV Corrective Direction, Heatr3 / RTV Corrective Direction, Brd4 / RTV Corrective Direction, P3h4 / RTV Corrective Direction, Pacsin3 / RTV Corrective Direction, Naa50 / RTV Corrective Direction, Lpar6 / RTV Corrective Direction, Ndrg1 / RTV Corrective Direction, Kntc1 / RTV Corrective Direction, Cdk11b / RTV Corrective Direction, Sumo1 / RTV Corrective Direction, Lsm4 / RTV Corrective Direction, Hmga2 / RTV Corrective Direction, Cstf1 / RTV Corrective Direction, Tes / RTV Corrective Direction, Sbno1 / RTV Corrective Direction, Unc119b / RTV Corrective Direction, Cfdp1 / RTV Corrective Direction, Sec61b: YES = protein abundance effect opposite to DYT/WT; conditions: EV protein abundance; for RTV Corrective Direction: DYT + RTV (ritonavir) vs DYT, direction compared with DYT/WT; for DYT + RTV/DYT Cohen's d: ritonavir (RTV)-treated DYT vs DYT

Molecule	WT + ISRIB/WT Cohen's d (WT MEF EVs)	ISRIB and DYT Parallel Direction (WT MEF EVs)	RTV Corrective Direction (DYT-TOR1A MEF EVs)	DYT + RTV/DYT Cohen's d (DYT-TOR1A MEF EVs)
Copb2 (protein, UniProt O55029 1-905, looked up) Coatomer subunit beta': MPLRLDIKRKLTARSDRVKSVDLHPTEPWMLASLYNGSVCVWNHETQTLVKTFEVCDLPVRAAKFVARKNWVVTGADDMQIRVFNYNTLERVHMFEAHSDYIRCIAVHPTQPFILTSSDDMLIKLWDWDKKWSCSQVFEGHTHYVMQIVINPKDNNQFASASLDRTIKVWQLGSSSPNFTLEGHEKGVNCIDYYSGGDKPYLISGADDRLVKIWDYQNKTCVQTLEGHAQNVSCASFHPELPIIITGSEDGTVRIWHSSTYRLESTLNYGMERVWCVASLRGSNNVALGYDEGSIIVKLGREEPAMSMDANGKIIWAKHSEVQQANLKAMGDTEIKDGERLPLAVKDMGSCEIYPQTIQHNPNGRFVVVCGDGEYIIYTAMALRNKSFGSAQEFAWAHDSSEYAIRESNSIVKIFKNFKEKKSFKPDFGAESIYGGFLLGVRSVNGLAFYDWENTELIRRIEIQPKHIFWSDSGELVCIATEESFFILKYLSEKVLAAQETHEGVTEDGIEDAFEVLGEIQEIVKTGLWVGDCFIYTSSVNRLNYYVGGEIVTIAHLDRTMYLLGYIPKDNRLYLGDKELNIVSYSLLVSVLEYQTAVMRRDFSMADKVLPTIPKEQRTRVAHFLEKQGFKQQALTVSTDPEHRFELALQLGELKIAYQLAVEAESEQKWKQLAELAISKCQFSLAQECLHHAQDYGGLLLLATASGNASMVNKLAEGAERDGKNNVAFMSYFLQGKLDACLELLIRTGRLPEAAFLARTYLPSQVSRVVKLWRENLSKVNQKAAESLADPTEYENLFPGLKEAFVVEEWVKETHADLWPAKQYPLVTPNEERNVMEEAKGFQPSRPTAQQEPDGKPASSPVIMASQTTHKEEKSLLELEVDLDNLELEDIDTTDINLDEDILDD	−1.11	YES	YES	6.13
Ap1b1 (protein, UniProt O35643 1-943, looked up) AP-1 complex subunit beta-1: MTDSKYFTTTKKGEIFELKAELNSDKKEKKKEAVKKVIASMTVGKDVSALFPDVVNCMQTDNLELKKLVYLYLMNYAKSQPDMAIMAVNTFVKDCEDPNPLIRALAVRTMGCIRVDKITEYLCEPLRKCLKDEDPYVRKTAAVCVAKLHDINAQLVEDQGFLDTLKDLISDSNPMVVANAVAALSEIAESHPSSNLLDLNPQSINKLLTALNECTEWGQIFILDCLANYMPKDDREAQSICERVTPRLSHANSAVVLSAVKVLMKFMEMLSKDLDYYATLLKKLAPPLVTLLSAEPELQYVALRNINLIVQKRPEILKHEMKVFFVKYNDPIYVKLEKLDIMIRLASQANIAQVLAELKEYATEVDVDFVRKAVRAIGRCAIKVEQSAERCVSTLLDLIQTKVNYVVQEAIVVIKDIFRKYPNKYESVIATLCENLDSLDEPEARAAMIWIVGEYAERIDNADELLESFLEGFHDESTQVQLQLLTAIVKLFLKKPTETQELVQQVLSLATQDSDNPDLRDRGYIYWRLLSTDPVAAKEVVLAEKPLISEETDLIEPTLLDELICYIGTLASVYHKPPNAFVEGGRGVVHKSLPPRTASSESTESPETAPAGAPAGDQPDVIPAQGDLLGDLLNLDLGPPVSGPPLAASSVQMGAVDLLGGGLDSLIGDSNFGAPSASVAAAPAPARLGAPISSGLSDLFDLTSGVGTLSGSYVAPKAVWLPAMKAKGLEISGTFTRQAGSISMDLQLTNKALQVMTDFAIQFNRNSFGLAPAAPLQVHVPLSPNQTVEISLPLNTVGSVLKMEPLNNLQVAVKNNIDVFYFSTLYPLHVLFVEDGKMDRQMFLATWKDIANENEAQFQIRDCPLNTEAASNKLQSSNIFTVAKRNVEGQDMLYQSLKLTNGIWVLAELRIQPGNPSFTLSLKCRAPEVSQHVYQAYETILKN	−1.08	YES	YES	4.53
Dpp3 (protein, UniProt Q99KK7 2-738, looked up) Dipeptidyl peptidase 3: ADTQYILPNDIGVSSLDCREAFRLLSPTERLYAHHLSRAAWYGGLAVLLQTSPEAPYIYALLSRLFRAQDPDQLRQHALAEGLTEEEYQAFLVYAAGVYSNMGNYKSFGDTKFVPNLPKDKLGRVILGSKAAQQRPEEVRDLWQTCGDLMFSLEPRLRHLGLGKEGVTTYFSGDCTMEDAKLAQDFLDSQNLSAYNTRLFKVVGQEGKSHYEVRLASVLNTDPALDSELTSKLKRYEFQGNHFQVTRGDYAPILQKVVEHLEKAKAYAANSHQEQMLAQYVESFTQGSIEAHKRGSRFWIQDKGPIVESYIGFIESYRDPFGSRGEFEGFVAMVNKAMSAKFERLVASAEQLLKELPWPLAFEKDKFLTPDFTSLDVLTFAGSGIPAGINIPNYDDLRQTEGFKNVSLGNVLAVAYAAKREKLTFLEEEDKDLYIRWKGPSFDVQVGLHELLGHGSGKLFVQDEKGAFNFDKETVINPETGEQIQSWYRSGETWDSKFSTIASSYEECRAESVGLYLCLNPQVLEIFGFEGADAEDVIYVNWLNMVRAGLLALEFYTPEAANWRQAHMQARFVILRVLLEAGEGLVTVTPTTGSDGRPDARVRLDRSKIRSVGRPALERFLRRLQVLKSTGDVVAGRALYEGYAAVTDAPPECFLTLRDTVLLRKESRKLIVQPNTRLEGSEVQLVEYEASAAGLIRSFCERFPEDGPELEEVLIQLAAADARFWRNQAQEAPPGQA	−1.56	YES	YES	5.13
Hnrnpl (protein, UniProt P14866 1-589, looked up) Heterogeneous nuclear …: MSRRLLPRAEKRRRRLEQRQQPDEQRRRSGAMVKMAAAGGGGGGGRYYGGGSEGGRAPKRLKTDNAGDQHGGGGGGGGGAGAAGGGGGGENYDDPHKTPASPVVHIRGLIDGVVEADLVEALQEFGPISYVVVMPKKRQALVEFEDVLGACNAVNYAADNQIYIAGHPAFVNYSTSQKISRPGDSDDSRSVNSVLLFTILNPIYSITTDVLYTICNPCGPVQRIVIFRKNGVQAMVEFDSVQSAQRAKASLNGADIYSGCCTLKIEYAKPTRLNVFKNDQDTWDYTNPNLSGQGDPGSNPNKRQRQPPLLGDHPAEYGGPHGGYHSHYHDEGYGPPPPHYEGRRMGPPVGGHRRGPSRYGPQYGHPPPPPPPPEYGPHADSPVLMVYGLDQSKMNCDRVFNVFCLYGNVEKVKFMKSKPGAAMVEMADGYAVDRAITHLNNNFMFGQKLNVCVSKQPAIMPGQSYGLEDGSCSYKDFSESRNNRFSTPEQAAKNRIQHPSNVLHFFNAPLEVTEENFFEICDELGVKRPSSVKVFSGKSERSSSGLLEWESKSDALETLGFLNHYQMKNPNGPYPYTLKLCFSTAQHAS	−0.32	YES	YES	6.17
Pbdc1 (protein, UniProt Q9D0B6 1-198, looked up) Protein PBDC1: MDAAGESEEPVSGEALSIAHALSHPPESYGNDPDIEMAWAIRAMQHAEVYYKLISSVDPQFLKLTKVDDQIYSEFREIFETLRVDVLDPEELKSESAKEKWRPFCLKFEGIVEDYNYGTLLRLDCSQGYTEENTIFAPRIQFFAIEIARNREGYNKAVSVSIQDKEGEEGAGNKEEAAEKGADSGGEKEEGANREGEK	−1.06	YES	YES	3.36
Upf1 (protein, UniProt Q9EPU0 1-1124, looked up) Regulator of nonsense …: MSVEAYGPSSQTLTFLDTEEAELLGADTQGSEFEFTDFTLPSQTQTPPGGPGGAGGPGGAGAGGAAGQLDAQVGPEGILQNGAVDDSVAKTSQLLAELNFEEDEEDTYYTKDLPVHACSYCGIHDPACVVYCNTSKKWFCNGRGNTSGSHIVNHLVRAKCKEVTLHKDGPLGETVLECYNCGCRNVFLLGFIPAKADSVVVLLCRQPCASQSSLKDINWDSSQWQPLIQDRCFLSWLVKIPSEQEQLRARQITAQQINKLEELWKENPSATLEDLEKPGVDEEPQHVLLRYEDAYQYQNIFGPLVKLEADYDKKLKESQTQDNITVRWDLGLNKKRIAFFTLPKTDSGNEDLVIIWLRDMRLMQGDEICLRYKGDLAPLWKGIGHVIKVPDNYGDEIAIELRSSVGAPVEVTHNFQVDFVWKSTSFDRMQSALKTFAVDETSVSGYIYHKLLGHEVEDVVIKCQLPKRFTAQGLPDLNHSQVYAVKTVLQRPLSLIQGPPGTGKTVTSATIVYHLARQGNGPVLVCAPSNIAVDQLTEKIHQTGLKVVRLCAKSREAIDSPVSFLALHNQIRNMDSMPELQKLQQLKDETGELSSADEKRYRALKRTAERELLMNADVICCTCVGAGDPRLAKMQFRSILIDESTQATEPECMVPVVLGAKQLILVGDHCQLGPVVMCKKAAKAGLSQSLFERLVVLGIRPIRLQVQYRMHPALSAFPSNIFYEGSLQNGVTAADRVKKGFDFQWPQPDKPMFFYVTQGQEEIASSGTSYLNRTEAANVEKITTKLLKAGAKPDQIGIITPYEGQRSYLVQYMQFSGSLHTKLYQEVEIASVDAFQGREKDFIILSCVRANEHQGIGFLNDPRRLNVALTRARYGVIIVGNPKALSKQPLWNHLLSYYKEQKALVEGPLNNLRESLMQFSKPRKLVNTVNPGARFMTTAMYDAREAIIPGSVYDRSSQGRPSNMYFQTHDQISMISAGPSHVAAMNIPIPFNLVMPPMPPPGYFGQANGPAAGRGTPKTKTGRGGRQKNRFGLPGPSQTTLPNSQASQDVASQPFSQGALTQGYVSMSQPSQMSQPGLSQPELSQDSYLGDEFKSQIDVALSQDSTYQGERAYQHGGVTGLSQY	−1.84	YES	YES	4.24
